Measured values: paper doi:10.1101/854158 (bioRxiv, 2019)

T1: FANCC (human, UniProt Q00597 1-558)
T1 sequence: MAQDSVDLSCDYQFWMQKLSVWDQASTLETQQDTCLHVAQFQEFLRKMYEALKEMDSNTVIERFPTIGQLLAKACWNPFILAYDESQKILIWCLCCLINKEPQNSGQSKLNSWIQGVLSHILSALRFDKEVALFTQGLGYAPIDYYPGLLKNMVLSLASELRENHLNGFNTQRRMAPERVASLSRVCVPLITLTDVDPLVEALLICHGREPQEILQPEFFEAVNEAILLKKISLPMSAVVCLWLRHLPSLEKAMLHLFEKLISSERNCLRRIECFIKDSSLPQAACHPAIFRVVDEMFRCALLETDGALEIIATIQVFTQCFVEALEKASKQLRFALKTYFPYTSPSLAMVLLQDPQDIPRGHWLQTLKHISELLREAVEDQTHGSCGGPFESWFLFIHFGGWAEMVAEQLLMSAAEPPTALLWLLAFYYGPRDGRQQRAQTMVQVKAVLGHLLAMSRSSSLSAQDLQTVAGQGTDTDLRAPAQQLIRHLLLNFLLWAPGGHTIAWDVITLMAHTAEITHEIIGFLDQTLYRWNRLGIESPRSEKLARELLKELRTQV

T2: FANCA (human, UniProt O15360 1-1455)
T2 sequence: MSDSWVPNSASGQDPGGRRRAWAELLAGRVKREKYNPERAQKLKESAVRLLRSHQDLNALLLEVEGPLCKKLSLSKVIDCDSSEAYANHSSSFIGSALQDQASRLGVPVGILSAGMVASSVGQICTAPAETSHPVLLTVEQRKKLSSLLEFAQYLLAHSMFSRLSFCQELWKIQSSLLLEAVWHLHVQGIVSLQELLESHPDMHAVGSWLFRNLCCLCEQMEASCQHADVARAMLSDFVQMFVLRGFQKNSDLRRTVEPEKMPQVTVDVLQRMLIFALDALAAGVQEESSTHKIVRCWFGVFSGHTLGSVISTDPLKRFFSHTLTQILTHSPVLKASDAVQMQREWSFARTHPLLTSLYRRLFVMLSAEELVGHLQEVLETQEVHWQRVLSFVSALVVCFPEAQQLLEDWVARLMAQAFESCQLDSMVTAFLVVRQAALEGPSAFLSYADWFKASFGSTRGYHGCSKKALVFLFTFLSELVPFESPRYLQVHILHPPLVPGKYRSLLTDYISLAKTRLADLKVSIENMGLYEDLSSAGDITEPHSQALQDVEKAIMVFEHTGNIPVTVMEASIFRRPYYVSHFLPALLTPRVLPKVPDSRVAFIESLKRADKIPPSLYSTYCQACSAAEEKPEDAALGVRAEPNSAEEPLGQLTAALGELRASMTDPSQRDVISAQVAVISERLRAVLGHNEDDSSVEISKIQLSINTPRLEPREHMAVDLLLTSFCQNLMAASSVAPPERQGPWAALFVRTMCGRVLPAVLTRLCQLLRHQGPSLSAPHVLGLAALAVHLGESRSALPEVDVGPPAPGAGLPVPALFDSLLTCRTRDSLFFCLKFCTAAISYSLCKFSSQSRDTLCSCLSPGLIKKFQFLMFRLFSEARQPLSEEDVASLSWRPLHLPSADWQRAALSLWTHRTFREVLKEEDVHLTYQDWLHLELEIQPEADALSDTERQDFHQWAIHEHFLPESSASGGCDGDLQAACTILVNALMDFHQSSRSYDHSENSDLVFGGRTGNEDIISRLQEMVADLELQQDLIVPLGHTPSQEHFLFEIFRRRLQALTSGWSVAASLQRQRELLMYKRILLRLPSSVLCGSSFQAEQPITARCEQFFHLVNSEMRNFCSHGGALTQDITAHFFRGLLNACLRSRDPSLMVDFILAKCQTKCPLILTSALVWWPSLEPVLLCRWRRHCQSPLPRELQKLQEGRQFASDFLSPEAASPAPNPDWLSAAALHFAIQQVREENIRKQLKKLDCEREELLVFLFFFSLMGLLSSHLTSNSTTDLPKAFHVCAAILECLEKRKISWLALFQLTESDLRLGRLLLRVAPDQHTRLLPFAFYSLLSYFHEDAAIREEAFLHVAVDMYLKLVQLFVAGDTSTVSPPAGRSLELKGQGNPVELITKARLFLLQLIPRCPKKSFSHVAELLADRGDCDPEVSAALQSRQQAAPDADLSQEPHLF

T3: FANCB (human, UniProt Q8NB91 1-859)
T3 sequence: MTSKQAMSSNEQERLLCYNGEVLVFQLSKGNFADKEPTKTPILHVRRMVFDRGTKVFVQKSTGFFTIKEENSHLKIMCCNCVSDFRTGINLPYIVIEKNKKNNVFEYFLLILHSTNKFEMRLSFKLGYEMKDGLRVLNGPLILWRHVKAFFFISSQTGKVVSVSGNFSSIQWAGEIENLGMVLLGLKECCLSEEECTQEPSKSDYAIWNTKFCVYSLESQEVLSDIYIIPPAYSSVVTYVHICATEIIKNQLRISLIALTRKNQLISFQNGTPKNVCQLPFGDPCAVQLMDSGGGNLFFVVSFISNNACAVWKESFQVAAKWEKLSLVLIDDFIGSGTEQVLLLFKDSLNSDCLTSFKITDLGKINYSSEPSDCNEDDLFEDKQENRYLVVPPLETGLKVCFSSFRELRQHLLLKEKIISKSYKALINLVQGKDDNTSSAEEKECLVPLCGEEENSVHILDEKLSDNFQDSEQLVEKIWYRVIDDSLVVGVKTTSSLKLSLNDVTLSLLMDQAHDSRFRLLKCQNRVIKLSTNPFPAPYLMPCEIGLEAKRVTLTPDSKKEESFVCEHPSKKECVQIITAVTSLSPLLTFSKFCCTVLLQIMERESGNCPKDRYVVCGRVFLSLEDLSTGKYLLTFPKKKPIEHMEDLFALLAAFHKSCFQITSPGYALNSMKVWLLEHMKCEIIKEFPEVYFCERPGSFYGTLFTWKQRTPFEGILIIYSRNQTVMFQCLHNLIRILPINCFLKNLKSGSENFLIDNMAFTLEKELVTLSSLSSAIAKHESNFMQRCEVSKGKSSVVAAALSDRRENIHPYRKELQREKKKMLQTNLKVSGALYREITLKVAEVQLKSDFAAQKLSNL

T4: FAAP100 (human, UniProt Q0VG06 1-881)
T4 sequence: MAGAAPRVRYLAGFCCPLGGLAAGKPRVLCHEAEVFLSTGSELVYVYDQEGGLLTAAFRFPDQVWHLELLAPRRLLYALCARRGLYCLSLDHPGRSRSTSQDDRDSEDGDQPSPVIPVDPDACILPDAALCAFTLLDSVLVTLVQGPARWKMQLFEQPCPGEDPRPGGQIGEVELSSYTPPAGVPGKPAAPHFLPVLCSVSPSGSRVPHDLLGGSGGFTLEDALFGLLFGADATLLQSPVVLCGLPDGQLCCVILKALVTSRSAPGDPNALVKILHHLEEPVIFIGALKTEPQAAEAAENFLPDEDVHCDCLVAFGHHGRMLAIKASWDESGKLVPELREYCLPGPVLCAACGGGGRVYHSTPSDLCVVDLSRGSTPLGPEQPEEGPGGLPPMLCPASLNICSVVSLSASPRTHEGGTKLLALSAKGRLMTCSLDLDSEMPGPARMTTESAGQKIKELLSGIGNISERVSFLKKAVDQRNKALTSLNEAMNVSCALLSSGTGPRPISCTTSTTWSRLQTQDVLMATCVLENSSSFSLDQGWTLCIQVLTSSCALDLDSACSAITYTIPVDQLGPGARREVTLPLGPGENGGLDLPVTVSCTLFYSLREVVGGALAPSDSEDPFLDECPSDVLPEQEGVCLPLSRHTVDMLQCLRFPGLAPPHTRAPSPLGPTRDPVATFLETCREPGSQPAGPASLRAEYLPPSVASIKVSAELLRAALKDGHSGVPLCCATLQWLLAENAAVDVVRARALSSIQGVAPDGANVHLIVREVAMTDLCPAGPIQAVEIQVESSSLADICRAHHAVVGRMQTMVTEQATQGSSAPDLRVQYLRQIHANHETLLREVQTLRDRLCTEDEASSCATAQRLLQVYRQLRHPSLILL

B1: FANCF (natural protein)
chain: MESLLQHLDRFSELLAVSSTTYVSTWDPATVRRALQWARYLRHIHRRFGRHGPIRTALERRLHNQWRQEGGFGRGPVPGLANFQALGHCDVLLSLRLLENRALGDAARYHLVQQLFPGPGVRDADEETLQESLARLARRRSAVHMLRFNGYRENPNLQEDSLMKTQAELLLERLQEVGKAEAERPARFLSSLWERLPQNNFLKVIAVALLQPPLSRRPQEELEPGIHKSPGEGSQVLVHWLLGNSEVFAAFCRALPAGLLTLVTSRHPALSPVYLGLLTDWGQRLHYDLQKGIWVGTESQDVPWEELHNRFQSLCQAPPPLKDKVLTALETCKAQDGDFEVPGLSIWTDLLLALRSGAFRKRQVLGLSAGLSSV
B2: FANCG (natural protein)
chain: MSRQTTSVGSSCLDLWREKNDRLVRQAKVAQNSGLTLRRQQLAQDALEGLRGLLHSLQGLPAAVPVLPLELTVTCNFIILRASLAQGFTEDQAQDIQRSLERVLETQEQQGPRLEQGLRELWDSVLRASCLLPELLSALHRLVGLQAALWLSADRLGDLALLLETLNGSQSGASKDLLLLLKTWSPPAEELDAPLTLQDAQGLKDVLLTAFAYRQGLQELITGNPDKALSSLHEAASGLCPRPVLVQVYTALGSCHRKMGNPQRALLYLVAALKEGSAWGPPLLEASRLYQQLGDTTAELESLELLVEALNVPCSSKAPQFLIEVELLLPPPDLASPLHCGTQSQTKHILASRCLQTGRAGDAAEHYLDLLALLLDSSEPRFSPPPSPPGPCMPEVFLEAAVALIQAGRAQDALTLCEELLSRTSSLLPKMSRLWEDARKGTKELPYCPLWVSATHLLQGQAWVQLGAQKVAISEFSRCLELLFRATPEEKEQGAAFNCEQGCKSDAALQQLRAAALISRGLEWVASGQDTKALQDFLLSVQMCPGNRDTYFHLLQTLKRLDRRDEATALWWRLEAQTKGSHEDALWSLPLYLESYLSWIRPSDRDAFLEEFRTSLPKSCDL

How the values were obtained:
Experiment in all cases: cryo-EM structure
[1] = molecular target: T1, FANCC
[2] = molecular target: B2
[3] = molecular target: T2, FANCA
[4] = molecular target: T3, FANCB
[5] = molecular target: T4, FAAP100

binding result [1] | binding result [2] | binding result [3] | binding result [4] | binding result [5] | Binder
binds | binds |  |  |  | B1
 |  | binds | binds | binds | B2
